Assay results as given in paper PMC12908882 (Molecular cancer therapeutics, 2026).
Blank lines part the entries; values can stand above or below the binder they belong to.

Legend:
[1] = molecular target: Human L1CAM fibronectin-like type III (FNIII) repeats, residues 606-1116, C-terminal 6x His tag (Homo sapiens, UniProt P32004); test: BLI
[2] = molecular target: Extracellular domain of human L1CAM fused to a poly-histidine tag (L1CAM-His) (Homo sapiens, UniProt P32004); test: BLI
[3] = molecular target: Human L1CAM expressed on transfected HEK293T cells (HEK293T-L1CAM cells) (Homo sapiens, UniProt P32004); test: flow cytometry on cells
Chain of Human L1CAM expressed on transfected HEK293T cells (HEK293T-L1CAM cells) (P32004 20-1257): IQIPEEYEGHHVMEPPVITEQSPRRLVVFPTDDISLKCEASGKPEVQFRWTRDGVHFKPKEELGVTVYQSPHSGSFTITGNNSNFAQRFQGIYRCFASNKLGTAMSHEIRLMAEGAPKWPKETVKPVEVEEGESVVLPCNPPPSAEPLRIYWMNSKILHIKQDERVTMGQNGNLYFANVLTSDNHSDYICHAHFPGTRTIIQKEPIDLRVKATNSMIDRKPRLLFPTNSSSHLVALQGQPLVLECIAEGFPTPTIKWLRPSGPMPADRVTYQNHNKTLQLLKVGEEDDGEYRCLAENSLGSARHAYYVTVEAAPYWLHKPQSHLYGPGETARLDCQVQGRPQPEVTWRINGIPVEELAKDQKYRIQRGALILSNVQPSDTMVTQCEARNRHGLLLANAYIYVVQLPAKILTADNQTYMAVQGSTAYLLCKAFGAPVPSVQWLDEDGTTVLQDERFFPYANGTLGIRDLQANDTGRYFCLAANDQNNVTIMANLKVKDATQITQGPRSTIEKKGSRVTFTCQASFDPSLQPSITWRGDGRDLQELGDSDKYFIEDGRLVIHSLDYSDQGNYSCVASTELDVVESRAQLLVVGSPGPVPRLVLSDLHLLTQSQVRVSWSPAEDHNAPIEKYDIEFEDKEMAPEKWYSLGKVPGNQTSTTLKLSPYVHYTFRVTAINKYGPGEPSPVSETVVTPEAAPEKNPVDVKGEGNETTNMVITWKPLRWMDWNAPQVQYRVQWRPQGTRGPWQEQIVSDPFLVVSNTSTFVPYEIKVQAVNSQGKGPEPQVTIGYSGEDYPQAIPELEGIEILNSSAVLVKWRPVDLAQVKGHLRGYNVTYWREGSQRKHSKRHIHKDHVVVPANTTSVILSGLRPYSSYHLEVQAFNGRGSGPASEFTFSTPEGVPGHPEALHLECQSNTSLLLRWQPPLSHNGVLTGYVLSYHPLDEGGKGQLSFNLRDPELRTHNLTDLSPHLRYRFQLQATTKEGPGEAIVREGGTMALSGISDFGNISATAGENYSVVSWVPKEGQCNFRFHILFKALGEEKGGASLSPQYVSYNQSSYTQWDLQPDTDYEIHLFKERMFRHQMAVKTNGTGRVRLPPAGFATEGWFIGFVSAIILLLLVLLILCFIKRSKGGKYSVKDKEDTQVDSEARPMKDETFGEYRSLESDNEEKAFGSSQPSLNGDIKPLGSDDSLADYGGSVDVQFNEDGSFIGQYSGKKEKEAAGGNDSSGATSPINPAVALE

[4] = molecular target: Human L1CAM Ig-like domains, residues 21-605, C-terminal 6x His tag (Homo sapiens, UniProt P32004); test: BLI
Chain of Human L1CAM Ig-like domains, residues 21-605, C-terminal 6x His tag (P32004 21-605): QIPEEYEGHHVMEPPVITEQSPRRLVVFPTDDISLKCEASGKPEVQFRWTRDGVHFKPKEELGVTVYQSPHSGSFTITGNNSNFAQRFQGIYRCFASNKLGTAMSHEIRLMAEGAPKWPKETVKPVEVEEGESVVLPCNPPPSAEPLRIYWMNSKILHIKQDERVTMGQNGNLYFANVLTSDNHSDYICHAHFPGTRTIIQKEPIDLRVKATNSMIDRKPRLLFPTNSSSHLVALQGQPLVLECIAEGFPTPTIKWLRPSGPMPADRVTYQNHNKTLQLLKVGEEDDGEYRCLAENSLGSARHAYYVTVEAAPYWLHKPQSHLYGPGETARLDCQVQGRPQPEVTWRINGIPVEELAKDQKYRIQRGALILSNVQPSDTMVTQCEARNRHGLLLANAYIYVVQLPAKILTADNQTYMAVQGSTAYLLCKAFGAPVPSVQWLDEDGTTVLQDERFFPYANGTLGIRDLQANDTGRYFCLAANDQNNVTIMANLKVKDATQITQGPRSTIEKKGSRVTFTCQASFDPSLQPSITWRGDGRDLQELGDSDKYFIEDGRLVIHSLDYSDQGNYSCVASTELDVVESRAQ

[5] = molecular target: His-tagged, monomeric mouse L1CAM protein (Mus musculus, UniProt P11627); test: BLI
Chain of His-tagged, monomeric mouse L1CAM protein (P11627 whole entry, looked up, tested part not stated): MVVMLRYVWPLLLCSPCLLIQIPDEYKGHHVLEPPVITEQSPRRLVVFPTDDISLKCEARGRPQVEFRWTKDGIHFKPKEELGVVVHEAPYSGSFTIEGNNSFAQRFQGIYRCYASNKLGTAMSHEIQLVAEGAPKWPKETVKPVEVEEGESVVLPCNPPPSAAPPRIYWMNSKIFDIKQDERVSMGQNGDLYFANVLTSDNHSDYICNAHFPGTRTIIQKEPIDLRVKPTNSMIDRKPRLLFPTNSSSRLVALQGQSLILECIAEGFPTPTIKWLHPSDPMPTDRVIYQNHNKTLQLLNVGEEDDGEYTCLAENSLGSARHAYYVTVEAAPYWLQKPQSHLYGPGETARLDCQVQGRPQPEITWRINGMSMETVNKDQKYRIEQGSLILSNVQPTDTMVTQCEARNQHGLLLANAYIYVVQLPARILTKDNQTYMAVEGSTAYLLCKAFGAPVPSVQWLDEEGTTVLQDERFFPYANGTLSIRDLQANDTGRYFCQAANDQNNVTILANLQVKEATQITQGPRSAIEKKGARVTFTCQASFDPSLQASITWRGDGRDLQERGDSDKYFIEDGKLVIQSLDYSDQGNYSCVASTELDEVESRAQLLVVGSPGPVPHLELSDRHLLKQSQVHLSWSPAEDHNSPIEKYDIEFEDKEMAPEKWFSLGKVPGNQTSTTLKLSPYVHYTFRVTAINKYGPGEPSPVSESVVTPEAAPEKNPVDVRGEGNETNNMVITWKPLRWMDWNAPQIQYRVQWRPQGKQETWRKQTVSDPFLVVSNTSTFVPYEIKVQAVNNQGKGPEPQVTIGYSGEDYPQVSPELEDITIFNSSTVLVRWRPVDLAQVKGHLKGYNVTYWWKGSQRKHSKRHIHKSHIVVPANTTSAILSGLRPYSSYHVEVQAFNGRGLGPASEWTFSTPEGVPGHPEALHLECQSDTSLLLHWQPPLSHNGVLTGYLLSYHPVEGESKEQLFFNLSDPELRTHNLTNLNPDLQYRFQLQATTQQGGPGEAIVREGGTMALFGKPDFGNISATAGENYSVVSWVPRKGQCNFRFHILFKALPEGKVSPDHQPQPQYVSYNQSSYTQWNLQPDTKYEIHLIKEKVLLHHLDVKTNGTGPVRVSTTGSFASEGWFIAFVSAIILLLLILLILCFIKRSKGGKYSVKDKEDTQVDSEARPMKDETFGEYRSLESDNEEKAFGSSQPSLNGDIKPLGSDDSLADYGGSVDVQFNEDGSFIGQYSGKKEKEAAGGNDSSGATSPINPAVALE

Chain of Extracellular domain of human L1CAM fused to a poly-histidine tag (L1CAM-His) (P32004 20-1120): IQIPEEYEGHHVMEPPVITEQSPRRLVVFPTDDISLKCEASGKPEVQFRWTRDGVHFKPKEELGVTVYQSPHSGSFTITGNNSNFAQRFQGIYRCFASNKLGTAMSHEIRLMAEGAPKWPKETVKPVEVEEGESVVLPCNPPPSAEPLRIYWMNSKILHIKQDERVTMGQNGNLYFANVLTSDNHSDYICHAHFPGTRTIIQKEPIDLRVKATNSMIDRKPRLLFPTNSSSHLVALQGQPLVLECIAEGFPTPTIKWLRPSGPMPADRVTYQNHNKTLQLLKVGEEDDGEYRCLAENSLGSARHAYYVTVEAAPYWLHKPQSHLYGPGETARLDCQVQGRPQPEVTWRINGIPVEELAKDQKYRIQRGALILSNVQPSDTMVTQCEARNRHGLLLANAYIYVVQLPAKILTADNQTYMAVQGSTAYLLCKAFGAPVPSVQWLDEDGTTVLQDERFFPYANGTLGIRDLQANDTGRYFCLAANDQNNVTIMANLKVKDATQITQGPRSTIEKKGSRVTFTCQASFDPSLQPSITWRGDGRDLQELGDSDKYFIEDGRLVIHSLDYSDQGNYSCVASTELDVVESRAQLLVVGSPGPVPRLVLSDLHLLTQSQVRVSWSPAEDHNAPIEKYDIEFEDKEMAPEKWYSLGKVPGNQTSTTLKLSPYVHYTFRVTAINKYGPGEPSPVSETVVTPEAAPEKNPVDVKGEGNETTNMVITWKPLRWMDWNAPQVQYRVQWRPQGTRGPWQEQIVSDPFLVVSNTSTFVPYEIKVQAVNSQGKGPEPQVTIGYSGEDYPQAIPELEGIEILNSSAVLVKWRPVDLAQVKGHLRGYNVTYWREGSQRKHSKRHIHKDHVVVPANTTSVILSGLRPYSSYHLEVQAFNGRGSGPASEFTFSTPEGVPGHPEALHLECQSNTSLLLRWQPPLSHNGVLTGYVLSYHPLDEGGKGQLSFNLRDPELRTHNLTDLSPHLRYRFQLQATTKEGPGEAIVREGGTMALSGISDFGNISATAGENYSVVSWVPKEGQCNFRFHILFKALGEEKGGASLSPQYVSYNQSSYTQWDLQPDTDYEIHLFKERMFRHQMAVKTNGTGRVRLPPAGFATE
Chain of Human L1CAM fibronectin-like type III (FNIII) repeats, residues 606-1116, C-terminal 6x His tag (P32004 606-1116): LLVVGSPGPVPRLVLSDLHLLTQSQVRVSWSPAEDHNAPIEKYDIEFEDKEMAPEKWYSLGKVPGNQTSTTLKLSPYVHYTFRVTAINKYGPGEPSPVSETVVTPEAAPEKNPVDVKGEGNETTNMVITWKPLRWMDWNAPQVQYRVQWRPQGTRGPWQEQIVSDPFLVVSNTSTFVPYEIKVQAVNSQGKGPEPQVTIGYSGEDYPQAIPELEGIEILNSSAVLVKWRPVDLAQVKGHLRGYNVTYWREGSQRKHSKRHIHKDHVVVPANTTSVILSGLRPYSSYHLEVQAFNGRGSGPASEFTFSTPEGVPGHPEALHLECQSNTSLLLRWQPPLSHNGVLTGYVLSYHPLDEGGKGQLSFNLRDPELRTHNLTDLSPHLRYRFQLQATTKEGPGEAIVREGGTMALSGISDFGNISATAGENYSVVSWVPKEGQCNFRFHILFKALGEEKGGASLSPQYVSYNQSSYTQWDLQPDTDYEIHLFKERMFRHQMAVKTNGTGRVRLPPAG

binding result [1]: binds
binding result [2]: binds
binding result [3]: binds
B1: 143G03 monoclonal antibody to human L1CAM (antibody, V domains shown)
VH: QVQLVQSGAEVKKPGSSVKVSCKASGYTFTNYYIHWVRQAPGQGLEWMGKIGPGSGSPYYQGMFKDRVTITADESTSTAYMELSSLRSEDTAVYYCARWLLPFDYWGQGTLVTVSS
VL: EIVLTQSPGTLSLSPGERATLSCRASSSVNYMHWYQQKPGQAPRLLIYATSILASGIPDRFSGSGSGTDYTLTISRLEPEDFAVYYCQQFSSDPLTFGGGTKVEIK

binding result [4]: binds
binding result [3]: binds
B2: 13F04 monoclonal antibody to human L1CAM (antibody, V domains shown)
VH: QVQLQQPGAELVKPGASVKLSCKASGYIFISYWMHWVKQRPGQGLEWIGEINPRNGRTNYNEKFKSKATLTVDKSSSTAYMQLTSLTSEDSAVYYCARGGDYGGSFDYWGQGTTLTVSS
VL: DIVLTQSPASLAVSLGQRATISCRASESVDSYGNSFMHWYQQKPGQPPKLLIYRASNLESGIPARFSGSGSRTDFTLTVNPVEADDVATYYCQQSNEDPWTFGGGTKLEIK

binding result [4]: binds
binding result [2]: binds
binding result [5]: binds
binding result [3]: binds
B3: 14A10 monoclonal antibody to human L1CAM (antibody, V domains shown)
VH: EVQMVESGGGLVQPGGSLRLSCAAPGFIFSSYNMNWVRQAPGKGLEWVSYISSSSSTTYYADSVKGRFTISRDNAKNSLYLQMNSLRDEDTAVYYCASLYSGYDYYYYYGMDVWGQGTTVTVSS
VL: DIVMTQTPLSSPVSLGQPASISCRSSQSLVHSDGNTYLSWLQQRPGQPPRVLIYKISKRFSGVPDRFSGSGAGTDFTLKISRVEAEDVGVYYCMQATQFPFTFGPGTKVDIK
